Assay results as given in patent publication US20120189639A1 (Merck Sharp & Dohme, published 2012).

T1: human GITR on naïve CD4+ T cells (human, UniProt Q9Y5U5 26-241)
T1 sequence: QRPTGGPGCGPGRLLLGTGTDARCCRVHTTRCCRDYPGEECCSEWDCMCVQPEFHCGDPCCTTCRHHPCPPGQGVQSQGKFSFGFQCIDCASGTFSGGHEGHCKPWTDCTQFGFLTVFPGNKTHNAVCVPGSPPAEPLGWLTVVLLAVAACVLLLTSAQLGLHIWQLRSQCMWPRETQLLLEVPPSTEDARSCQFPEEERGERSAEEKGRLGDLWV

T2: hGITR-hIgG (human, UniProt Q9Y5U5 26-161, limits assumed)
T2 construct: not shown: human IgG part of the fusion
T2 sequence: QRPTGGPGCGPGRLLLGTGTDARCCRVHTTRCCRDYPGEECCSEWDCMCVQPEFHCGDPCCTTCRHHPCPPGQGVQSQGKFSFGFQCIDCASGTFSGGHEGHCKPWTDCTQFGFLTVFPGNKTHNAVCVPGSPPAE


Legend:
[1] = target: T1, human GITR on naïve CD4+ T cells; experiment: cell-based or functional assay
[2] = target: T2, hGITR-hIgG; experiment: BIAcore SPR; hGITR-hIgG capture antigen, mAb analyte; apparent Kd
Procedure: (§1) BIAcore determinations are performed essentially as described at Example 4 of co-pending, commonly assigned U.S. patent application Ser. No. 11/511,635 (filed 29 Aug. 2006). Briefly, binding partners are immobilized on a BIAcore CM5 sensor chip using standard amine-coupling procedure. Kinetic constants for the various interactions are determined using BIAevaluation software 3.1. The Kd is determined using the calculated dissociation and association rate constants.

[3] = target: T2, hGITR-hIgG; experiment: BIAcore SPR; hGITR-hIgG capture antigen, mAb analyte
Procedure: as §1

| Binder | proliferation of naïve CD4+ T cells, mean, at 0.04 ng/mL Ab [1] | proliferation of naïve CD4+ T cells, mean, at 0.15 ng/mL Ab [1] | proliferation of naïve CD4+ T cells, mean, at 0.61 ng/mL Ab [1] | proliferation of naïve CD4+ T cells, mean, at 2.4 ng/mL Ab [1] | proliferation of naïve CD4+ T cells, mean, at 9.8 ng/mL Ab [1] | proliferation of naïve CD4+ T cells, mean, at 39.1 ng/mL Ab [1] | proliferation of naïve CD4+ T cells, mean, at 156 ng/mL Ab [1] | proliferation of naïve CD4+ T cells, mean, at 625 ng/mL Ab [1] | proliferation of naïve CD4+ T cells, mean, at 2500 ng/mL Ab [1] | proliferation of naïve CD4+ T cells, mean, at 10000 ng/mL Ab [1] | Kd [2] [nM] | koff [3] [s⁻¹] | kon [3] [M⁻¹ s⁻¹] |
| --- | --- | --- | --- | --- | --- | --- | --- | --- | --- | --- | --- | --- | --- |
| 6H6 (antibody, V domains shown, Parental rodent anti-human GITR monoclonal antibody from a hybridoma; kappa VL; also called 6H6.C3; hybridoma PTA-9892) VH: QVQLQQSGAELMKPGASVKISCKATGYTFSRYWIEWIKQRPGHGLEWIGEILPGSGSSNYNEKFKDKATFTADTSSNTAYMQFSSLTSEDSAVYYCARKVYYYAMDFWGQGTSVTVSS VL: QIVLTQSPAIMSVSLGERVTVTCTASSSVSSSYFHWYQQKPGSSPKLWIYSTSNLASGVPARFSGSGSGTSYSLTISTMEAEDAATYYCHQYHRSPRTFGGGTKLEIKR | 38500 | 33400 | 30200 | 35600 | 60000 | 104000 | 123000 | 120000 | 107000 | 91900 | 1.51 | 0.000919 | 610000 |
| 61G6 (antibody, V domains shown, Parental rodent anti-human GITR monoclonal antibody from a hybridoma; kappa VL; also called 61G6.B6; hybridoma PTA-9891) VH: DVQLQESGPGLVKPSQSLSLTCTVTGYSITSDYAWNWIRQFPGNKLEWMGYISYSGSTRYNPSLKSRISITRDTSKNQFFLQLNSVTSEDTATYYCARQLGLRFFDYWGQGTTLTVSS VL: QIVLTQSPALMSASPGEKVTMTCSANSTVNYMYWYQQKPRSSPKPCIYLTSNLASGVPARFSGSGSGTSYSLTISSMEAEDAATYYCQQWNSNPPTFGAGTKLELRR | 31000 | 35600 | 32600 | 28900 | 34300 | 40100 | 45600 | 75100 | 116000 | 135000 | 15.6 | 6.9e-05 | 4000 |
| 3D6 (antibody, V domains shown, Parental rodent anti-human GITR monoclonal antibody from a hybridoma; kappa VL; also called JL5.3D6; hybridoma PTA-9889) VH: EVQLVESGGGLVQPGRSLKLSCAASGFTFSDYYMAWVRQAPTKGLEWVAYIHANGGSTYYRDSVRGRFSISRDNGKSTLYLQMDSLRSEDTATYYCTTGSFMYAADYYIMDAWGQGASVTVSS VL: DVVMTQTPVSLSVSLGNQASISCRSSQSLLHSDGNTFLSWYFQKPGQSPQLLIYLASNRFSGVSNRFSGSGSGTDFTLKISRVEPEDLGVYYCFQHTHLPLTFGSGTKLEIKR | 33300 | 30800 | 33800 | 43100 | 79300 | 124000 | 109000 | 111000 | 109000 | 96200 | 8.05 | 0.000766 | 95000 |
